Source: patent US20160031992A1

B1: humanized 1A8 antibody VH1/Vκ1 (antibody, IgG1, V domains shown)
VH: QVQFVQSGPELKKPGASVKVSCKGSSYTFTDYTMHWVKLAHAKTLEWIGVIDTYYGKTNYNQKFEGRATMTVDKSSSTAYMELARLRSEDSAVYYCARGGFRRGDRPSLRYAMDSWGQGTSVTVSS
VL: DIVLTQSPDSLAVSLGERATINCRASQSVSISTYSYIHWFQQKPGQPPKLLIKYASNLESGVPDRFSGSGSGTDFTLNIHPVEEEDVGIYYCQHSWEIPYTFGGGTKVEIK
B2: humanized 1A8 antibody VH4/Vκ3 (antibody, IgG1, V domains shown)
VH: QVQLVQSGAEVKKPGASVKVSCKGSSYTFTDYTMHWVRLASAKTLEWIGVIDTYYGKTNYNQKFEGRATITVDKSSSTAYMELSSLRSEDTAVYYCARGGFRRGDRPSLRYAMDSWGQGTLVTVSS
VL: DIVMTQSPDSLAVSLGERATINCRASQSVSISTYSYIHWFQQKPGQPPKLLIKYASNLESGVPDRFSGSGSGTDFTLKISRVEAEDVGIYYCQHSWEIPYTFGGGTKVEIK
B3: humanized 1A8 antibody VH4/Vκ2 (antibody, IgG1, V domains shown)
VH: QVQLVQSGAEVKKPGASVKVSCKGSSYTFTDYTMHWVRLASAKTLEWIGVIDTYYGKTNYNQKFEGRATITVDKSSSTAYMELSSLRSEDTAVYYCARGGFRRGDRPSLRYAMDSWGQGTLVTVSS
VL: DIVLTQSPDSLAVSLGERATINCRASQSVSISTYSYIHWFQQKPGQPPKLLIKYASNLESGVPDRFSGSGSGTDFTLKISRVEEEDVGIYYCQHSWEIPYTFGGGTKVEIK
B4: humanized 1A8 antibody VH3/Vκ3 (antibody, IgG1, V domains shown)
VH: QVQLVQSGAEVKKPGASVKVSCKGSSYTFTDYTMHWVRLASAKTLEWIGVIDTYYGKTNYNQKFEGRATMTVDKSSSTAYMELSSLRSEDTAVYYCARGGFRRGDRPSLRYAMDSWGQGTLVTVSS
VL: DIVMTQSPDSLAVSLGERATINCRASQSVSISTYSYIHWFQQKPGQPPKLLIKYASNLESGVPDRFSGSGSGTDFTLKISRVEAEDVGIYYCQHSWEIPYTFGGGTKVEIK
B5: humanized 1A8 antibody VH4/Vκ1 (antibody, IgG1, V domains shown)
VH: QVQLVQSGAEVKKPGASVKVSCKGSSYTFTDYTMHWVRLASAKTLEWIGVIDTYYGKTNYNQKFEGRATITVDKSSSTAYMELSSLRSEDTAVYYCARGGFRRGDRPSLRYAMDSWGQGTLVTVSS
VL: DIVLTQSPDSLAVSLGERATINCRASQSVSISTYSYIHWFQQKPGQPPKLLIKYASNLESGVPDRFSGSGSGTDFTLNIHPVEEEDVGIYYCQHSWEIPYTFGGGTKVEIK
B6: humanized 1A8 antibody VH2/Vκ3 (antibody, IgG1, V domains shown)
VH: QVQLVQSGAEVKKPGASVKVSCKGSSYTFTDYTMHWVKLASAKTLEWIGVIDTYYGKTNYNQKFEGRATMTVDKSSSTAYMELSSLRSEDTAVYYCARGGFRRGDRPSLRYAMDSWGQGTLVTVSS
VL: DIVMTQSPDSLAVSLGERATINCRASQSVSISTYSYIHWFQQKPGQPPKLLIKYASNLESGVPDRFSGSGSGTDFTLKISRVEAEDVGIYYCQHSWEIPYTFGGGTKVEIK
B7: humanized 1A8 antibody VH2/Vκ1 (antibody, IgG1, V domains shown)
VH: QVQLVQSGAEVKKPGASVKVSCKGSSYTFTDYTMHWVKLASAKTLEWIGVIDTYYGKTNYNQKFEGRATMTVDKSSSTAYMELSSLRSEDTAVYYCARGGFRRGDRPSLRYAMDSWGQGTLVTVSS
VL: DIVLTQSPDSLAVSLGERATINCRASQSVSISTYSYIHWFQQKPGQPPKLLIKYASNLESGVPDRFSGSGSGTDFTLNIHPVEEEDVGIYYCQHSWEIPYTFGGGTKVEIK
B8: humanized 1A8 antibody VH1/Vκ3 (antibody, IgG1, V domains shown)
VH: QVQFVQSGPELKKPGASVKVSCKGSSYTFTDYTMHWVKLAHAKTLEWIGVIDTYYGKTNYNQKFEGRATMTVDKSSSTAYMELARLRSEDSAVYYCARGGFRRGDRPSLRYAMDSWGQGTSVTVSS
VL: DIVMTQSPDSLAVSLGERATINCRASQSVSISTYSYIHWFQQKPGQPPKLLIKYASNLESGVPDRFSGSGSGTDFTLKISRVEAEDVGIYYCQHSWEIPYTFGGGTKVEIK
B9: humanized 1A8 antibody VH1/Vκ2 (antibody, IgG1, V domains shown)
VH: QVQFVQSGPELKKPGASVKVSCKGSSYTFTDYTMHWVKLAHAKTLEWIGVIDTYYGKTNYNQKFEGRATMTVDKSSSTAYMELARLRSEDSAVYYCARGGFRRGDRPSLRYAMDSWGQGTSVTVSS
VL: DIVLTQSPDSLAVSLGERATINCRASQSVSISTYSYIHWFQQKPGQPPKLLIKYASNLESGVPDRFSGSGSGTDFTLKISRVEEEDVGIYYCQHSWEIPYTFGGGTKVEIK
B10: humanized 1A8 antibody VH2/Vκ2 (antibody, IgG1, V domains shown)
VH: QVQLVQSGAEVKKPGASVKVSCKGSSYTFTDYTMHWVKLASAKTLEWIGVIDTYYGKTNYNQKFEGRATMTVDKSSSTAYMELSSLRSEDTAVYYCARGGFRRGDRPSLRYAMDSWGQGTLVTVSS
VL: DIVLTQSPDSLAVSLGERATINCRASQSVSISTYSYIHWFQQKPGQPPKLLIKYASNLESGVPDRFSGSGSGTDFTLKISRVEEEDVGIYYCQHSWEIPYTFGGGTKVEIK
B11: humanized 1A8 antibody VH3/Vκ1 (antibody, IgG1, V domains shown)
VH: QVQLVQSGAEVKKPGASVKVSCKGSSYTFTDYTMHWVRLASAKTLEWIGVIDTYYGKTNYNQKFEGRATMTVDKSSSTAYMELSSLRSEDTAVYYCARGGFRRGDRPSLRYAMDSWGQGTLVTVSS
VL: DIVLTQSPDSLAVSLGERATINCRASQSVSISTYSYIHWFQQKPGQPPKLLIKYASNLESGVPDRFSGSGSGTDFTLNIHPVEEEDVGIYYCQHSWEIPYTFGGGTKVEIK

Tests used:
[1] = target: biotinylated αvβ6; experiment: inhibition of biotinylated αvβ6 binding to plate-coated LAP, streptavidin-HRP
[2] = target: integrin αvβ6 on NIH3T3β6 cells (NIH3T3 cells transfected with β6); experiment: FACS on NIH3T3β6 cells, geometric MFI against antibody concentration

| Binder | IC50 relative to chimeric antibody (ratio to chimeric antibody) [1] | EC50 relative to chimeric antibody (ratio to chimeric antibody) [2] |
| --- | --- | --- |
| B1 | 1.02 | 1.13 |
| B2 | 1.74 | 2.96 |
| B3 | 2.3 | 3.24 |
| B4 | 1.2 | 2.41 |
| B5 | 1.93 | 3.57 |
| B6 | 0.98 | 2.46 |
| B7 | 1.48 | 3 |
| B8 | 1.05 | 1.04 |
| B9 | 1.19 | 1.07 |
| B10 | 1.32 | 2.4 |
| B11 | 1.07 | 2.86 |
